The target of the assay is T1, human CD73 expressed on the cell surface (human, UniProt P21589 27-549).
T1 construct: whole, on cells; also called surface CD73
T1 sequence (looked up): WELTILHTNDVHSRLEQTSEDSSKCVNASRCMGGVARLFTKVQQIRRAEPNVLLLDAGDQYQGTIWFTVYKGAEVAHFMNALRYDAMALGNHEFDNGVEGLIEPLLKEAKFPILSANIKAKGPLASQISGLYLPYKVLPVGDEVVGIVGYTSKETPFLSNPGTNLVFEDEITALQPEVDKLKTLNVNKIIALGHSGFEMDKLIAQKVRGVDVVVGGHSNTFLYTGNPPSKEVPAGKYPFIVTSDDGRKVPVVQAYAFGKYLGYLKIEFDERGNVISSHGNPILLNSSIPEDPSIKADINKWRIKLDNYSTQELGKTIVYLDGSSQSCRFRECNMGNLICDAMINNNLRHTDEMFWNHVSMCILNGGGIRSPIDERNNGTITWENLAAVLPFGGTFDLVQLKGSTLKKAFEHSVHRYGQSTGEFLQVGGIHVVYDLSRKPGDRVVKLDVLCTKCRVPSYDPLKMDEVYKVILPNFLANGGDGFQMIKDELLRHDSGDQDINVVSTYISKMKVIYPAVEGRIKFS
As to the kind of experiment: flow cytometry, biotinylated antibody in human whole blood, CD8+ T cells, streptavidin-APC. The procedure:
Whole blood target engagement was assessed by flow cytometry using whole blood from healthy human donors. Briefly, biotinylated antibodies were incubated with whole blood for 30 minutes prior to red blood cell lysis and fixation. Fixed cells were stained for CD3 and CD8 to identify CD8+ T cells, and streptavidin-APC to detect biotin. After staining, the cell were washed and subjected to flow cytometry analysis.

The text below walks through data of patent US20230039109A1 (Novartis, published 2023).

B1: anti-CD73 antibody 356.B (antibody, human IgG4 S228P, kappa, V domains shown)
VH: QVQLQESGPGLVKPSETLSLTCTVSGGSIEGRYWSWIRQPPGKGLEWIGYIYGSGSTKYNPSLKSRVTISVDTSKNQFSLKLSSVTAADTAVYYCARESQESPYNNWFDPWGQGTLVTVSS
VL: DIQMTQSPSSVSASVGDRVTITCRASQGISSWLAWYQQKPGKAPKLLIYAASSLQSGVPSRFSGSGSGTDFTLTISSLQPEDFATYYCQQGNSFPRTFGGGTKVEIKR
notes: IgG4 S228P/L235E format; The last heavy chain residue X is K or absent; Biotinylated in the whole blood flow cytometry assay
As usually defined, the EC50 (read off the curve) is the midpoint of the concentration-response curve. With B1, the “EC50 (read off the curve)” value is about 6 ng/mL.
